In article PMC3596245:
Like-named read-outs stand apart in the source and are kept apart here.

Legend:
[1] = target: NMMIIA rod filaments (residues 1338-1960) (human) (UniProt P35579); test: co-sedimentation
[2] = target: NMMIIA rod filaments (residues 1338-1960) (human) (UniProt P35579); test: co-sedimentation; remark: listed apart in the source

## GST-gelsolin N-terminal half (G1-G3) (domain or fragment)
[1]
  Kd: 495 nM
[2]
  Kd: 220 nM

## GST-gelsolin C-terminal half (G4-G6) (domain or fragment)
[1]
  Kd: 1310 nM
[2]
  Kd: 212 nM

## GST-gelsolin full-length (G1-G6) (from UniProt P06396 28-782) (natural protein)
[1]
  Kd: 423 nM
[2]
  Kd: 158 nM
